Parameters: species or system mice
Settings: mouse, in vivo
Description: {circumflex over (4)} Biodistribution of ^68Ga-NOTA-3PEG4-TATE-RGD in Healthy Mice
There was small amount of uptake in the heart, liver and lungs, which decreased quickly over time.

CC(O)[C@@H]1NC(=O)[C@H](CCCCN)NC(=O)[C@@H](Cc2c[nH]c3ccccc23)NC(=O)[C@H](Cc2ccc(O)cc2)NC(=O)[C@@H](NC(=O)[C@@H](Cc2ccccc2)NC(=O)COCCOCCOCCOCCNC(=O)C(CCC(=O)NCCOCCOCCOCCOCC(=O)NCCCC[C@@H]2NC(=O)[C@@H](Cc3ccc(O)cc3)NC(=O)[C@H](CC(=O)O)NC(=O)CNC(=O)[C@H](CCCNC(=N)N)NC2=O)NC(=O)COCCOCCOCCOCCNC(=S)Nc2ccc(CC3CN(CC(=O)O)CCN(CC(=O)O)CCN3CC(=O)O)cc2)CSSC[C@@H](C(=O)N[C@H](C(=O)O)[C@@H](C)O)NC1=O (stereo partly drawn) [^68Ga-NOTA-3PEG4-TATE-RGD, metal not drawn]
clearance from blood, heart and liver: cleared from the blood, heart and liver faster | distribution in brain tissues / blood-brain barrier passage: could not pass through the blood-brain barrier | route of excretion: mainly excreted through the kidneys

Reference: patent US20200155714A1, “DUAL-TARGET IMAGING MOLECULAR PROBE, PREPARATION METHOD THEREFOR, AND APPLICATIONS THEREOF” (PEKING UNION MEDICAL COLLEGE HOSPITAL, CHINESE ACADEMY OF …, priority 2017, published 2020)
